Source: the supplement of paper PMC12667976
± gives the standard error.

B1: library; numbered along this chain (parent)
chain: MATDAALRRLLRLHRTEIAVAVDSAFPLLHALADHDVVPEDKFQETLHLKEKEGCPQAFHALLSWLLTQDSTAILDFWRVLFKDYNLERYGRLQPILDSFPKDVDLSQPRKGRKPPAVPKALVPPPRLPTKRKASEEARAAAPAALTPRGTASPGSQLKAKPPKKPESSAEQQRLPLGNGIQTMSASVQRAVAMSSGDVPGARGAVEGILIQQVFESGGSKKCIQVGGEFYTPSKFEDSGSGKNKARSSSGPKPLVRAKGAQGAAPGGGEARLGQQGSVPAPLALPSDPQLHQKNEDECAVCRDGGELICCDGCPRAFHLACLSPPLREIPSGTWRCSSCLQATVQEVQPRAEEPRPQEPPVETPLPPGLRSAGEEVRGPPGEPLAGMDTTLVYKHLPAPPSAAPLPGLDSSALHPLLCVGPEGQQNLAPGARCGVCGDGTDVLRCTHCAAAFHWRCHFPAGTSRPGTGLRCRSCSGDVTPAPVEGVLAPSPARLAPGPAKDDTASHEPALHRDDLESLLSEHTFDGILQWAIQSMARPAAPFPS

Variants of: B1
Assay: AIRE transcriptional activation functional score (insulin promoter-GFP; nonsense median 0, synonymous median 1) (normalised score); higher = higher AIRE activity (more reporter activation)
Settings: with insulin promoter-GFP reporter in HEK293
Procedure: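 Deep mutational scan of full-length human AIRE (codon-optimized cDNA, DT-POPCode NNN libraries over three regions) integrated at a Bxb1 landing pad in HEK293 cells carrying an insulin core promoter-GFP reporter at a Flp-In site. Cells were sorted for the top 10% GFP about 14 days after transfection. Variant frequency log-ratios (select vs non-select, TileSeq) were rescaled so that the nonsense median is 0 and the synonymous median is 1, then averaged over biological replicates.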

| Variant | AIRE transcriptional activation functional score |
| --- | --- |
| P430I | 1.28 ± 0.3 |
| Q275E | 1.26 ± 0.19 |
| A284C | 0.943 ± 0.11 |
| L397Y | 0.779 ± 0.18 |
| T463L | 1.06 ± 0.14 |
| P39E | 0.999 ± 0.066 |
| K259W | 1.19 ± 0.089 |
| P499E | 0.508 ± 0.27 |
| A160K | -0.392 ± 0.28 |
| D515R | -0.0862 ± 0.14 |
| D515N | 0.626 ± 0.15 |
| P357C | 1.23 ± 0.24 |
| R12F | -0.626 ± 0.18 |
| P325A | 1.15 ± 0.11 |
| T447A | 1.02 ± 0.4 |
| F26Y | -0.359 ± 0.21 |
| T46C | 0.841 ± 0.26 |
| Q342W | 1.73 ± 0.09 |
| Q342A | 0.362 ± 0.25 |
| W455D | 0.9 ± 0.14 |
| K165H | 1.16 ± 0.37 |
| A170V | 0.782 ± 0.44 |
| L29C | -0.201 ± 0.2 |
| P315Y | 0.976 ± 0.27 |

| Variant | AIRE transcriptional activation functional score |
| --- | --- |
| P200F | 0.777 ± 0.045 |
| Q262P | 1.16 ± 0.29 |
| Q262I | 1.04 ± 0.24 |
| A25L | 1.16 ± 0.47 |
| P365T | 0.843 ± 0.34 |
| I533E | -0.386 ± 0.17 |
| I533H | 0.217 ± 0.096 |
| G469E | 0.672 ± 0.2 |
| H523K | 0.199 ± 0.14 |
| S518G | 0.666 ± 0.1 |
| A429N | 1.09 ± 0.094 |
| H319Q | 1.44 ± 0.099 |
| P400A | 1.56 ± 0.13 |
| P384L | 1.14 ± 0.26 |
| T391I | 1.29 ± 0.07 |
| C322D | 1.77 ± 0.089 |
| A451R | 1.19 ± 0.44 |
| V38P | -0.205 ± 0.17 |
| A140Q | 0.908 ± 0.25 |
| L67T | -0.29 ± 0.49 |
| T16F | -0.112 ± 0.16 |
| V118A | 1.02 ± 0.72 |
| A117Y | 1.76 ± 0.24 |
| E229D | 0.886 ± 0.073 |

| Variant | AIRE transcriptional activation functional score |
| --- | --- |
| L409F | 0.907 ± 0.093 |
| A142R | 0.685 ± 0.49 |
| P331Y | 1.08 ± 0.19 |
| P331H | 0.817 ± 0.22 |
| G277V | 1.1 ± 0.19 |
| D312I | 0.684 ± 0.33 |
| V214A | 0.717 ± 0.19 |
| K50V | 0.73 ± 0.45 |
| Q189H | 0.892 ± 0.18 |
| Q189V | -0.071 ± 0.19 |
| A540S | 0.988 ± 0.28 |
| A540N | 1.02 ± 0.19 |
| L308Y | 0.412 ± 0.079 |
| G269F | 1.42 ± 0.13 |
| S196Y | 0.776 ± 0.11 |
| K395T | 0.901 ± 0.52 |
| K395I | 0.422 ± 0.1 |
| A281W | 1.53 ± 0.049 |
| P282L | 1.31 ± 0.25 |
| E329W | 1.13 ± 0.044 |
| S535H | 0.704 ± 0.11 |
| Q358D | 0.761 ± 0.22 |
| V348L | 1.09 ± 0.22 |
| V348H | 1.33 ± 0.23 |

| Variant | AIRE transcriptional activation functional score |
| --- | --- |
| L10A | -0.0675 ± 0.18 |
| A317V | 0.416 ± 0.25 |
| Q69S | -0.2 ± 0.34 |
| G435Y | 0.365 ± 0.14 |
| G435P | 1.14 ± 0.28 |
| R513H | 0.0273 ± 0.075 |
| I18T | -0.194 ± 0.67 |
| S491A | 0.995 ± 0.14 |
| S491K | 0.437 ± 0.24 |
| V104C | 0.343 ± 0.48 |
| T504F | 0.918 ± 0.081 |
| T504N | 0.713 ± 0.15 |
| S250K | 0.556 ± 0.53 |
| A258D | 0.387 ± 0.22 |
| S169C | 0.968 ± 0.17 |
| S169G | 1.42 ± 0.78 |
| P422N | 1.18 ± 0.13 |
| T183A | 0.69 ± 0.4 |
| T183F | 0.248 ± 0.33 |
| L146I | 0.888 ± 0.25 |
| A31I | 0.231 ± 0.82 |
| T441M | 1.24 ± 0.095 |
| T441A | 1.03 ± 0.36 |
| D478G | 0.841 ± 0.13 |

| Variant | AIRE transcriptional activation functional score |
| --- | --- |
| G333K | 1.24 ± 0.25 |
| V206A | 0.817 ± 0.31 |
| K245S | 0.252 ± 0.21 |
| F525T | -0.259 ± 0.35 |
| K222P | 0.845 ± 0.28 |
| K222M | -0.00949 ± 0.043 |
| E270W | 1.36 ± 0.024 |
| E270V | 1.36 ± 0.34 |
| R538M | 1.05 ± 0.096 |
| D442H | 0.38 ± 0.23 |
| L177G | -0.4 ± 0.62 |
| A386C | 0.57 ± 0.17 |
| I528E | 0.137 ± 0.15 |
| I528Q | 0.209 ± 0.088 |
| W531E | -0.39 ± 0.13 |
| P355F | 1 ± 0.11 |
| P326N | 0.815 ± 0.84 |
| A21V | 0.278 ± 0.23 |
| N244E | 0.249 ± 0.19 |
| S241E | 1.29 ± 0.38 |
| A141M | 0.533 ± 0.15 |
| Q276Y | 1.26 ± 0.065 |
| A403M | 1.38 ± 0.064 |
| E207M | -0.394 ± 0.12 |

| Variant | AIRE transcriptional activation functional score |
| --- | --- |
| G208M | 0.171 ± 0.1 |
| C475M | -0.469 ± 0.15 |
| L158W | 1.22 ± 0.042 |
| R473P | 0.607 ± 0.32 |
| R139E | 0.912 ± 0.071 |
| K42Y | -0.464 ± 0.26 |
| K42H | 0.0173 ± 0.08 |
| G178M | 1.65 ± 0.15 |
| S476R | 0.828 ± 0.26 |
| S476H | 0.529 ± 0.051 |
| C337M | 0.956 ± 0.099 |
| D105V | 0.6 ± 0.28 |
| Q349L | 1.1 ± 0.26 |
| A450F | 1.24 ± 0.54 |
| F59G | 0.194 ± 0.51 |
| G379P | 0.992 ± 0.16 |
| A186H | 0.849 ± 0.093 |
| K501R | 1.11 ± 0.37 |
| G228W | -0.356 ± 0.059 |
| P368S | 1.27 ± 0.2 |
| A500C | 1.07 ± 0.13 |
| G421N | 0.869 ± 0.064 |
| D288A | 1.19 ± 0.096 |
| D288S | 1.24 ± 0.26 |

| Variant | AIRE transcriptional activation functional score |
| --- | --- |
| M194Y | 0.702 ± 0.18 |
| I181L | 0.717 ± 0.29 |
| S187K | 0.853 ± 0.12 |
| Q173C | 1.51 ± 0.6 |
| Q426R | 0.722 ± 0.33 |
| E375K | 1.35 ± 0.14 |
| Q425C | 0.714 ± 0.05 |
| T334C | 0.7 ± 0.29 |
| A300I | 1.11 ± 0.34 |
| T480A | 0.564 ± 0.23 |
| L511F | 0.864 ± 0.28 |
| K159D | 0.68 ± 0.32 |
| N295T | 1.14 ± 0.23 |
| C340S | 1.52 ± 0.17 |
| D41I | -1.3 ± 0.24 |
| L444G | 1.27 ± 0.24 |
| I224M | 1.07 ± 0.12 |
| I224K | 0.822 ± 0.32 |
| I224Y | 0.84 ± 0.094 |
| L417R | 0.707 ± 0.21 |
| C302E | 0.654 ± 0.032 |
| R257L | 0.834 ± 0.23 |
| V301A | 1.01 ± 0.26 |
